Laboratory results as given in patent publication US11603409B2, “Humanized DR4 antibody gene having apoptosis-inducing activity and dual-acting chimeric antigen receptor T cell or natural killer cell therapeutic agent using same” (GENEUIN-TECH CO., LTD., priority 2017, dated 2023).

Tests used:
[1] = system: HeLa cells, a cervical cancer cell line expressing DR4; assay: Apoptosis induction by secretory DR4 scFv protein, MTT method, HeLa cells; type: cell-based; conditions: low and high concentrations, FIG. 4(B)
Protocol: (§1) To this end, apoptosis-inducing effects of secretory humanized DR4 scFv antibody recombinant protein were analyzed using HeLa cells, a cervical cancer cell line expressing DR4 on the cell surface, and HCT-116 cells, a colon cancer cell line. […] Each of these three cells was inoculated in a culture dish and cultured overnight, and then the secretory humanized DR4 scFv antibody recombinant protein was added to the culture medium, and the degree of death of the cells during culturing was determined by MTT method (Cyto X™ Cell viability assay kit, LPS solution, Korea).

[2] = system: HEK293 cells which do not express DR4; assay: Apoptosis induction by secretory DR4 scFv protein, MTT method, HEK293 control cells; type: cell-based, human; conditions: HEK293 cells not expressing DR4; protein added to culture medium at low and high concentrations; FIG. 4(A)
Protocol: as §1

[3] = system: HCT-116 cells, a colon cancer cell line; assay: Apoptosis induction by secretory DR4 scFv protein, MTT method, HCT-116 cells; type: cell-based; conditions: HCT-116 cells expressing DR4; low and high concentrations; FIG. 4(C)
Protocol: as §1

B1: secretory humanized DR4 scFv antibody recombinant protein: Secreted humanized anti-DR4 scFv (SEQ ID NO: 1) with isoleucine zipper, Flag and His6 tags, expressed from pCMVFL-srkDR4 in HEK293 cells (protein)
scFv: EVQLVESGGGLVQPGGSLRLSCSASGFTFSSYSMQWVRQAPGKGLEYVAGIRSDGRYTNYGAAVKGRATISRDNSKNTVYLQMNSLRAEDTAVYYCAKGAYGYCGSTCAPYLGQIDAWGQGTLVTVSSGSTSGSGKPGSGEGSTKGSYELTQPPSVSVSPGQTVRITCSGGRYTYGWFQQKPGQAPVTVIYGNDKRPSNIPSRFSGSTSGSTVTLTISGVQAEDEADYYCGGADFSAGLFGGGTKLTVL
modifications: left off: small tags and cut ends; a dimerising Fc or GST
[1]
  apoptosis effect (degree of death of the cells by MTT method): apoptosis increased in proportion to the concentration
[2]
  apoptosis effect (degree of death of the cells by MTT method): not observed
[3]
  apoptosis effect (degree of death of the cells by MTT method): apoptosis increased in proportion to the concentration
